# Test: soluble on expression in E. coli; label from the status in PepcDB or PDB records
row,Sequence,soluble on expression in E. coli
1,APLAHCDGRGGLKLSQDMDTCEDILPCVPFSVAKSVKSLYLGRMFSGTPVIRLRFKRLQPTRLVAEFDFRTFDPEGILLFAGGHQDSTWIVLALRAGRLELQLRYNGVGRVTSSGPVINHGMWQTISVEELARNLVIKVNRDAVMKIAVAGDLFQPERGLYHLNLTVGGIPFHEKDLVQPINPRLDGCMRSWNWLNGEDTTIQETVKVNTRMQCFSVTERGSFYPGSGFAFYSLDYMRTPLDVGTESTWEVEVVAHIRPAADTGVLFALWAPDLRAVPLSVALVDYHSTKKLKKQLVVLAVEHTALALMEIKVCDGQEHVVTVSLRDGEATLEVDGTRGQSEVSAAQLQERLAVLERHLRSPVLTFAGGLPDVPVTSAPVTAFYRGCMTLEVNRRLLDLDEAAYKHSDITAHSCPPVEPAAA,soluble
2,MFRRLGEKTTLYRAESPSQNSLASHHNSEVSLPSVDYSQEDRHSCNTLIGDEWSQNGDVIIQPLQKPSNTPTTQYERIITRREIANTESDLCKKLSLIVDLVSDFANDANRLYEGADELLKELRTKIRVYIYFLDVEMADVEKLLRFNVDRSTICDERIDWLLHFTKCHKEMRRVLNELSEEVCEDLESCLEMRAKGVIGKKPSSIILSTLSGMRNGMMTASKLLGCLPRQRA,not soluble
3,SDEINAQSVWSEEISSNYPLCIKNLMEGLKKNHHLRYYGRQQLSLFLKGIGLSADEALKFWSEAFTNMTMEKFNKEYRYSFRHNYGLEGNRINYKPWDCHTILSKPRPGRGDYHGCPFRDWSHERLSAELRSMKLTQAQIISVLDSCQKGEYTIACTKVFEMTHNSASADLEIGEQTHIAHPNLYFERSRQLQK,soluble
4,MISCSEEGSNKILVAISLDRDESQNVLSWAINVLAKPSDTVVALHLLVGEEPRKLPMKKKKRTQIRHAKAHVISMLGEFAYTCCHNQVNLEAKVGFSSNIGRGLIDEVKSISAHYLVLSRPTTHEFR,soluble
5,MKKGVHLVFILVASLLSSFSVMAQSLQASVNKTEVAKNEVINLRIMADSEVASDAIDFSVLEKDFFLGQPRYGRSSNNINGRKYQRTEWSISIAPMKEGIITIPSFSADGMKTEPIQLKVTANKSAPDLDDLFSFNMSVDNHTLYPQQSANLRMQLIIKADTRRLDNPQVV,not soluble
6,MGSDKIHHHHHHMPEQQKSVTGTSLFERYTLSQAYDEMFTAEGDIRPAYSELARLLCSISPAELQQRQRYADLTFLNQGITFTVYGNDAGVERVFPYDLLPRIIAADEWQHIERGLHQRIVALNLFLHDVYHNENILRDGIIPRHLVYSCRHYRREMRGLTVPRGVYTAIVGTDLVRLPDGQFVVLEDNLRVPSGVSYMLTNRAVMKRALPRLFGAYGVRPIDHYGQALLATLRALAPAHRPEPTIVLLTPGVFNSAYFEHTFLARQMGIELVEGRDLLVHNNIVYMRTTKGLQRVDVIYRRIDDDFLDPMIFRPDSVLGVPGLFNAYRAGTVVLANAIGTGVADDKAIYAYVPDIIRYYLGEEPILPNVTTYLCDRPDECAYVLEHLGDLVVKAVGESGGYDMLIGPHSTREEQAQFAERIRAQPRNYIAQPTLQLSQAPCFIDGVIEPRHVDLRPFVLFDGERTTIVPGGLTRVALRRGSLVVNSSQGGGSKDTWVLY,not soluble
7,GLISDIIACPGMDYCALATARSIPVAQEIATRFEELKLEHEIGALKIKISGCINACGHHHVGHIGILGLDRAGVENYQITLGGDATETAAIGERTGPGFAYDQIVPAVERIVETYLDQRRDREESFIETYRRVGMAPFKAALYPE,not soluble
8,MGSDKIHHHHHHMERNEMLKKVEAAMPNARFKHTLGVEKAAVELAEHYHMDVEKARITALLHDYAKYYDDDKARKIIEDEGYDPRLLSFHRSLWHAPVGAYLAEKEFGITDTEILEAIRLHTTGSATMSDFDKLIYLADYTEQGRTFPGVYKARRLALKSLNEAMLFALSNTITHLVKKQQLVFPDTLDAYNYFVNLNLEGDY,not soluble
9,SREPVDILREQKINAEWALKQQSDKLAAQFDNMDDAYLRERKQDMLQVVRRIHNNLIGQGNELEVADNLFDETVLIANDLSPADTVLFKEQR,not soluble
10,MKTIGLLGGMSWESTIPYYRLINEGVKARLGGLHSASLVLHSVDFHDIEACQSAGDWDRAGEILAEAAVGLQQAGAEGIVLCTNTMHKVADAIAARCQVPFLHIADATGRAIAAKGQRRVALLGTRYTMEQTFYRGRLQEQFAIETLIPEADDRAQINQIIFDELCLGTFSEASRDYYLQTIAALAEQGAEGVIFGCTEIGLLVPAELSPLPVFDTAAIHAEDAVNFMLSAGPTPAA,not soluble
11,MSQMMQMYQQVGPAQFSAMIGQFAPYFASIAPQFVELRPGYAEVTFPKRREVLNHIGTVHAIALCNAAELAAGTMTDASIPAGHRWIPRGMTVEYLAKATGDVRAVADGSQIDWQATGNLVVPVVAYVDDKPVFRAEITMYVSQA,soluble
12,SLLCVVGGSMNVSMEASIVESLLQRRCLKESDLYRARQLQAESGVGLLPLLGRLGLVSERDHAEVCAEVMGLLLIQVRELPDTPPEFSAEVHGLSIRFLKQFHVCPLAEHDGVLQLCVADPFDVYAIEALRLATGAVLQLCIGLRSEIDDLVERWYGQGRS,soluble
13,PAQDYRCQLSRNYGKGSGSFTNYYYDKATSSCKTFRYRGSGGNGNRFKTLEDCEATCVTAE,soluble
14,SNAMTIRFADKADCAAITEIYNHAVLHTAAIWNDRTVDTDNRLAWYEARQLLGYPVLVSEENGVVTGYASFGDWRSFDGFRYTVEHSVYVHPAHQGKGLGRKLLSRLIDEARRCGKHVMVAGIESQNAASIRLHHSLGFTVTAQMPQVGVKFGRWLDLTFMQLQLDEHAAPDAC,soluble
15,MAHHHHHHMKGLHIRPMNDSRLCERIKVLDDYCFPVKYTESYYNDYVRNSFHEFNQLAFYHDILVGSITCRLEKTATDGEHVLYIMTIGVLEAYRHLRIGSRLLQTVLSAVHNDTRNRIVAVTLHVQVGSPALKLYRQFNFEEVQLVENYYTDLDECNAILLRRVVPQPHFEHHKKFK,not soluble
16,MGSDKIHHHHHHMPRPRRTQISLEDTPFYHCCSRVVRRAFLCGDDSYSGKNYDHRRAWVESLLFELEAVFAIDVVAFAVMSNHLHVVLRIDVETANRWSDREVLEQWHKLFKGDELTQKFAKGGLVEADEVNRLRHSIAIYRSRLCDISWFMRCLNEPIARQANQEDNCTGRFWEGRFKSQALLDEAAVLACMTYVDLNPIRAQMADTLEQSAHTSIQLRIQAALKDEQPKNLLPFIGNERDNQPIGITFSLIDYLQLVDDTGRIIRNDKLGAITENSAKLLTRLNIHHDNWLKLTTEFGKLFHGPVGTLQELTDYCEHLEKRRRHFAKCCQHLNAG,not soluble
17,MAGASETYTHTLTDVPIDIKYDSDDYFISGYSYGADVYMSSVNRVKLDSEINEDTRKFKVVADLTNMKPGTHKVPLKVVNLPSGVNATVSPTTITVTMGKKKTLEHHHHHH,soluble
18,MGSDKIHHHHHHMNKANTVDTSTEAVERVAKEISGLASREAVSMIQGWEDAFELYLKAADQLSALAAERDTLANQVEDCARECAKLAEEIQRLQAQLAETRASLYALEKGVWRDGYPDKISGSEWFIALLEDNRRVVLRSLPEEHSYDYTTADDTYLAAWKIKRWMQFPDANFIAPDTIVHTTVERIEQIKEEARNAALEEAAEVVARIKKPTIPPMFMGQTRAEAYDMGQHNACESKAELIRTLKSEPAPHPDCPECSGSGMRDSGGVQPWGDHIDAPCDCENAPAPRQSVQKAADNLAKGLRSAGYFIPSSIIFDVMVQKKSAS,not soluble

# From the DeepSol protein solubility set
